Reference: PMC9897197 (Brain, 2022)

Legend:
Brain uptake = details: ISCP, 13.5-month-old female non-Tg vs 3xTg-AD mice; unpaired t-test
INSRβ = INSRβ (Mus musculus, UniProt P15208); assay: Phosphorylation of INSRβ; type: in vivo; details: 6-month-old C57Bl6 mice
Chain of INSRβ (P15208 28-746 limits assumed): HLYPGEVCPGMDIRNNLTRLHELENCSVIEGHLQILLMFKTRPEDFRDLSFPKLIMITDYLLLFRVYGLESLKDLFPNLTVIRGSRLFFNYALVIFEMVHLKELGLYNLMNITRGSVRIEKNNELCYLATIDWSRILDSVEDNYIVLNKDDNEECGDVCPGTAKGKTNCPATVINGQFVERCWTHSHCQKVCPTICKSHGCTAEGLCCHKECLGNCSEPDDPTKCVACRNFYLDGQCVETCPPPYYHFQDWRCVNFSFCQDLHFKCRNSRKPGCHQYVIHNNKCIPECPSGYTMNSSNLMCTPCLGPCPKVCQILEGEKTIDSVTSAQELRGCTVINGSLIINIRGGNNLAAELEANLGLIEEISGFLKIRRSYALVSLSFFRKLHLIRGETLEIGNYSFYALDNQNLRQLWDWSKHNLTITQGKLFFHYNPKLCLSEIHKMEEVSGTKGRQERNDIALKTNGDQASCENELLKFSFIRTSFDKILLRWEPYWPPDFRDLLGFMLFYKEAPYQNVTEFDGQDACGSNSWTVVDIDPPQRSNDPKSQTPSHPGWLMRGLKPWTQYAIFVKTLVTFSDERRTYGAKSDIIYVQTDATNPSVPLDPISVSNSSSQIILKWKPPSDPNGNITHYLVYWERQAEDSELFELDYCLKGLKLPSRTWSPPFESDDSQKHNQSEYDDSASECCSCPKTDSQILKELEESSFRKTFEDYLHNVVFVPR
Chain of INSRβ (P15208 753-1372 limits assumed): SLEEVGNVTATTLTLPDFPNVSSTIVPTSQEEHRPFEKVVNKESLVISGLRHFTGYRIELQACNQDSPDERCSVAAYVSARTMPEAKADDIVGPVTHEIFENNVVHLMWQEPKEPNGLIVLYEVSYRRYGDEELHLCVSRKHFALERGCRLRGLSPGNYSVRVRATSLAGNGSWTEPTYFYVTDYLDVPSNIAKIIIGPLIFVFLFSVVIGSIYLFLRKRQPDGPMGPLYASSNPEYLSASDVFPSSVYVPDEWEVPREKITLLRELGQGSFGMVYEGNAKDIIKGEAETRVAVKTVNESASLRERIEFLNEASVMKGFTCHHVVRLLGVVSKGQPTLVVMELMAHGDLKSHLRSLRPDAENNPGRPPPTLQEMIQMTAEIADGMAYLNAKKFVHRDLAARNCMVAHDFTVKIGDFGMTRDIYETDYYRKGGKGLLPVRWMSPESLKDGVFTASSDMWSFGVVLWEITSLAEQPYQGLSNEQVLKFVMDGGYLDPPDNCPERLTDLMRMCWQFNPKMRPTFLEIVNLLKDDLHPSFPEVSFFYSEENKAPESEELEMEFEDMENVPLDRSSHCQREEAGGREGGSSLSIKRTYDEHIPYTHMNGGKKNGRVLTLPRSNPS

| Substance | impact of 3xTg-AD transgenes on 125I-insulin transport (Brain uptake) | phosphorylation of INSRβ in microvessel-depleted parenchymal fraction (INSRβ; ISCP 120 s, insulin 350 nM, western blot) | time to INSRβ phosphorylation after intracarotid administration (INSRβ; insulin 0.4 mg/kg or 350 nM, ISCP) [s] |
| --- | --- | --- | --- |
| 125I-insulin: radiolabelled insulin used for transport quantification | no significant impact | – | – |
| insulin | – | no trace was detected | ≤ 120 |
